Experiment in all cases: SAXS
In experiment [1] the target is AIF R529A mutant (Cβ-clasp) (UniProt O95831).
The target is the same in experiment [2]. The source holds these as a separate data set.
Experiment [3] has as its target AIF H454A mutant (UniProt O95831).

Like-named read-outs stand apart in the source and are kept apart here.

As a reminder, the stoichiometry N is the number of molecules, sites or subunits per partner or assembly.

For “AIF R529A mutant (Cβ-clasp) (from UniProt O95831 55-613) (natural protein)”, the stoichiometry N in experiment [1] and in experiment [2] was 2 each time.

The substance “AIF H454A mutant (from UniProt O95831 55-613) (natural protein)” yielded a stoichiometry N in experiment [3] of 2.
